Test results from doi:10.1101/2025.03.11.642517 (bioRxiv, 2025).
Substitutions are numbered along the chain they refer to.

B1: DS90 clone, E. coli crude extract of the bacterial display library (VHH)
VHH: VQLVESGGGLVQAGGSLRLSCAASGRTFSSYVMGWYRQAPGKEREFVARISWSGGHTHSADSVKGRFTISRDNAKNTVYLQMNSLKPDDTAIYYCNAEPTVTGSWFTPGLQSYWGQGTQVTVSS
B2: Bacterially expressed DS90-cMyc (VHH)
VHH: B1 VHH
B3: DS34 clone, E. coli crude extract of the bacterial display library (VHH)
VHH: B1 VHH with V101A
B4: DS76 clone, E. coli crude extract of the bacterial display library (VHH)
VHH: B1 VHH with R18G, T100S
B5: DS29 clone, E. coli crude extract of the bacterial display library (VHH)
VHH: VQLVESGGGLVQPGGSLRLSCAASGFTFDDYGMSWVRQAPGKGLEWVSAISWNGGGTYYAESMKGRFTISRDNAKNTVYLQMNGLKPEDTAVYYCAKPSTYSGSWLTDFGSWGQGTQVTVSS
B6: Biotinylated prefusion NiV F with AviTag (domain or fragment)
chain: ILHYEKLSKIGLVKGVTRKYKIKSNPLTKDIVIKMIPNVSNMSQCTGSVMENYKTRLNGILTPIKGALEIYKNNTHDLVGDVRLAGVIMAGVAIGIATAAQITAGVALYEAMKNADNINKLKSSIESTNEAVVKLQETAEKTVYVLTALQDYINTNLVPTIDKISCKQTELSLDLALSKYLSDLLFVFGPNLQDPVSNSMTIQAISQAFGGNYETLLRTLGYATEDFDDLLESDSITGQIIYVDLSSYYIIVRVYFPILTEIQQAYIQELLPVSFNNDNSEWISIVPNFILVRNTLISNIEIGFCLITKRSVICNQDYATPMTNNMRECLTGSTEKCPRELVVSSHVPRFALSNGVLFANCISVTCQCQTTGRAISQSGEQTLLMIDNTTCPTAVLGNVIISLGKYLGSVNYNSEGIAIGPPVFTDKVDISSQISSMNQSLQQSKDYIKEAQRLLDT
modifications: biotin (on the AviTag, by BirA)

Columns and labels:
[1] = target: NiV F expressed in HeLa cells under IRES-GFP (Nipah virus, Malaysia, UniProt Q9IH63); assay: immunostaining of cells or tissue
[2] = target: DS34 FcM (DS34 nanobody fused to human monomeric Fc) (alpaca (Vicugna pacos)); assay: SPR
[3] = target: DS90 Fc dimer (DS90 nanobody fused to human Fc) (alpaca (Vicugna pacos)); assay: SPR
[4] = target: DS76 FcM (DS76 nanobody fused to human monomeric Fc) (alpaca (Vicugna pacos)); assay: SPR
[5] = target: DS90 FcM (DS90 nanobody fused to human monomeric Fc) (alpaca (Vicugna pacos)); assay: SPR

Binder	binding result [1]	also measured
B1	binds	
B2	binds	
B3	binds	
B4	binds	
B5	binds	
B6		Kd [2]: 23.4 nM; binding result [3]: binds; Kd [4]: 303 nM; Kd [5]: 4.83 nM
